Patent US11402384B2 (Duke University, priority 2015, dated 2022)
Where a chain is given by its changes, count along the chain named. Numbers in names are those of the source.

B1: W244Y A: tsGBP2.13C.W244Y (SEQ ID NO: 49) Acrylodan conjugate (conjugate)
chain: MKLEIFSWWAGDCGPALEALIRLYKQKYPGVEVINATVTGGAGVNAKAVLKTRMLGGDPPDTFQVHAGQELIGTWVVADRMEDLTSLFRQEGWLQAFPKGLIDLLSYKGGIWSVPVNIHRSNVMWYIPAKLKEWGVTPPKTWAEFLATAQTLKRKGLEAPLALGENWTQQHLWESVALATLGADGWNNLWSGKLKFTDPKAVAVWETFGKVLDAANKDAAGLSWQQAVDRVVQGKAAFNIMGDYAAGYMSTTLKLKPGTDFAWTPSPGTSGIFMMLSDSFGLPKGAKNRQNAINWLKLVGSKEGQDTFNPLKGSIAARLDSDPAKYNAYGQSAMKDWKSNRIVGSLVHGAVAPESFMSQFGTVMEIFLQSRNPQAAANAAQAIANQVGLGRGGSHHHHHH
modifications: Acrylodan conjugate; tsGBP2.13C.W244Y (13C, 244Y double substitution mutant with signal peptide replaced with M and a GGSHHHHHH at C-terminus)
B2: W244M A: tsGBP2.13C.W244M (SEQ ID NO: 47) Acrylodan conjugate (conjugate)
chain: B1 chain with Y244M
modifications: Acrylodan conjugate; tsGBP2.13C.W244M (13C, 244M double substitution mutant with signal peptide replaced with M and a GGSHHHHHH at C-terminus)
B3: H66Q A: tsGBP2.13C.H66Q (SEQ ID NO: 46) Acrylodan conjugate (conjugate)
chain: B1 chain with H66Q, Y244W
modifications: Acrylodan conjugate; tsGBP2.13C.H66Q (13C, 66Q double substitution mutant with signal peptide replaced with M and a GGSHHHHHH at C-terminus)
B4: H66Q B: tsGBP2.13C.H66Q (SEQ ID NO: 46) Badan conjugate (conjugate)
chain: B1 chain with H66Q, Y244W
modifications: Badan conjugate; tsGBP2.13C.H66Q (13C, 66Q double substitution mutant with signal peptide replaced with M and a GGSHHHHHH at C-terminus)
B5: W244M B: tsGBP2.13C.W244M (SEQ ID NO: 47) Badan conjugate (conjugate)
chain: B1 chain with Y244M
modifications: Badan conjugate; tsGBP2.13C.W244M (13C, 244M double substitution mutant with signal peptide replaced with M and a GGSHHHHHH at C-terminus)
B6: W244Y B: tsGBP2.13C.W244Y (SEQ ID NO: 49) Badan conjugate (conjugate)
chain: B1 chain
modifications: Badan conjugate; tsGBP2.13C.W244Y (13C, 244Y double substitution mutant with signal peptide replaced with M and a GGSHHHHHH at C-terminus)
B7: Q64M B: tsGBP2.13C.Q64M (SEQ ID NO: 45) Badan conjugate (conjugate)
chain: B1 chain with Q64M, Y244W
modifications: Badan conjugate; tsGBP2.13C.Q64M (13C, 64M double substitution mutant with signal peptide replaced with M and a GGSHHHHHH at C-terminus)

experiment: Ratiometric fluorescence glucose titration of fluorescent conjugates; assay type: binding; design: key to Shape (fluorescence response to glucose) / Change (fluorescence response to glucose): m, monochromatic; d, dichromatic (i.e. spectral shape change); 0, no change; conditions: read-out: Glucose affinity ^appKd; tsGBP 13C affinity mutants, Acrylodan or Badan conjugates
Method in brief: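 Single-cysteine glucose-binding protein mutants labelled site-specifically with thiol-reactive environmentally sensitive fluorophores; emission spectra recorded during glucose titration to detect ligand-mediated intensity and spectral-shape changes for ratiometric read-out. Temperature- and ligand-dependent fluorescence landscapes acquired in 1K steps; binding fitted to single-site fractional saturation.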

| Molecule | Kd [mM] |
| --- | --- |
| B1 | 5.6 |
| B2 | ~40 |
| B3 | ~20 |
| B4 | ~0.1 |
| B5 | ~5 |
| B6 | 4.1 |

same assay, conditions: read-out: Glucose affinity ^trueKd; tsGBP 13C affinity mutants, Acrylodan or Badan conjugates

| Molecule | Kd [mM] |
| --- | --- |
| B1 | 7.8 |
| B2 | ~20 |
| B3 | ~7 |
| B4 | ~0.09 |
| B5 | ~7 |
| B6 | 3.8 |

same assay, conditions: tsGBP 13C affinity mutants, Acrylodan or Badan conjugates

| Molecule | Change (fluorescence response to glucose) |
| --- | --- |
| B7 | m |
| B4 | m |
